Data from paper PMC7913695, “Mechanism of DNA cleavage by the endonuclease SauUSI: a major barrier to horizontal gene transfer and antibiotic resistance in Staphylococcus aureus”.

Tests used:
[1] = biological target: SauUSI (Staphylococcus aureus); experiment: SEC-MALS; 1 mg/ml SauUSI injected on Superdex 200 in 50 mM Tris-HCl pH 8, 50 mM NaCl, 1 mM DTT
SauUSI = biological target: T1, SauUSI (Staphylococcus aureus, UniProt Q2FVC3 1-953); experiment: EMSA; 250 nM DNA; shift first detected at 0.1 uM SauUSI (0.05-1.6 uM tested); Protein and DNA incubated 20 min on ice; 5% native PAGE, ethidium bromide stain; binding buffer, salt and pH not stated; conditions: protein: recombinant; tags: His-tag (HisTrap purified); chain copies: 2; blunt
T1 sequence: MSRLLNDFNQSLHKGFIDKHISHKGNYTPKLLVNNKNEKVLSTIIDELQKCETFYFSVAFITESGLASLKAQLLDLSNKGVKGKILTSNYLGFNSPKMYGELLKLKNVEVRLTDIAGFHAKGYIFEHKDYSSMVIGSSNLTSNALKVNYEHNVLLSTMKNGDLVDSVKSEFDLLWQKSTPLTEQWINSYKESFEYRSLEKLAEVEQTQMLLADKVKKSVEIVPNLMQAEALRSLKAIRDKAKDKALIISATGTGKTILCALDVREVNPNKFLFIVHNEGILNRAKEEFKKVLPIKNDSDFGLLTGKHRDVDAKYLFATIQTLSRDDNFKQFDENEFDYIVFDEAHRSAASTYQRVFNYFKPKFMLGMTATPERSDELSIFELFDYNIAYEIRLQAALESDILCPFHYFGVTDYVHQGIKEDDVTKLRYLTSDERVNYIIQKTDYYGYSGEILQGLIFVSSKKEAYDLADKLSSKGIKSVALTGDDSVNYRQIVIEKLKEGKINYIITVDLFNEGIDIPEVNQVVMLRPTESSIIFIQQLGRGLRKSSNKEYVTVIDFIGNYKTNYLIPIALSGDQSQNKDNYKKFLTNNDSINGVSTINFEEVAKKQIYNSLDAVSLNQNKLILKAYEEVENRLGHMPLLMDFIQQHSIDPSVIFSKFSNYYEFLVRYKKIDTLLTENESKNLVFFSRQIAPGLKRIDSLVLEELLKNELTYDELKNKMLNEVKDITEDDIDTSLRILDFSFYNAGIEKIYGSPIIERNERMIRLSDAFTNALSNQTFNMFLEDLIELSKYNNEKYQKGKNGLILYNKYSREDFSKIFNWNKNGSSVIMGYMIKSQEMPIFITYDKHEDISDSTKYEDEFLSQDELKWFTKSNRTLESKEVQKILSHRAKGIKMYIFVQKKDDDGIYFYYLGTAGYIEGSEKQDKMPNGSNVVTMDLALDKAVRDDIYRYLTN

SauUSI (enzyme) showed a stoichiometry N [1] of 2.

B1: EMSA methylated 60 bp (specific DNA) (dsDNA)
DNA 1: GCCGCGGATCCTTCACAAGACGATTACCGGCGCTGAAAGACCAGCATATGCAATTTGACT
DNA 2: AGTCAAATTGCATATGCTGGTCTTTCAGCGCCGGTAATCGTCTTGTGAAGGATCCGCGGC
modifications: 5-methyl-dC at position 28 of strand 1 and position 31 of strand 2 (both strands)
B1: binds (SauUSI).
